Assay results published in patent US20190233906A1, “MUTANT STRAINS OF STAPHYLOCOCCUS AUREUS WITH MULTIPLE INACTIVATED TCS SYSTEMS” (priority 2015, published 2019).

Legend:
[1] = test system: ArlR D52A (non-phosphorylatable ArlR allele)
[2] = test system: ArlR response regulator of the arlRS two-component system of S. aureus MW2
arlR-dependent protein A = test: Protein A expression by Western blotting on stimulation of GraS; assay type: cell-based, Staphylococcus aureus; details: 50 μg of colistin
Protocol: Overnight cultures of the strains were diluted in TSB-gluc to an OD650nm=0.1 and 50 μl of the diluted cultures were mixed with 1950 μl of chemically defined medium HHWm (Hussain-Hastings-White modified medium) (Toledo-Arana et al., 2005) to inoculate sterile 24-well polystyrene microtitre plates (Costar). Plates were incubated at 37° C. for 24 hours, trying to mimic biofilm forming conditions. […] of bacterial cultures were centrifuged and pellets were resuspended in 60 μl PBS. Then, 2 μl of Lysostaphin 1 mg/ml (Sigma) and 3 μl of DNase I 1 mg/ml (Sigma) were added. After 2 h of incubation at 37° C. cell lysates were centrifuged and supernatants were collected. Protein concentration was determined with the Bio-Rad protein assay (Bio-Rad). Samples were adjusted to 3-5 μg of total protein and one volume of Laemmli buffer was added. Total protein extracts were denatured by boiling at 100° C. for 5 min. Proteins were separated on 10% SDS-polyacrylamide gels and stained with 0.25% Coomassie brilliant blue R250 (Sigma) as loading controls. For Western blotting, proteins were transferred onto Hybond-ECL nitrocellulose membranes (Amersham Biosciences) by semi-dry electroblotting. […] Protein A was detected with the SuperSignal West Pico Chemiluminescent Substrate (Thermo Scientific). • Construction of the Bap-Snap-ClfA Quimeric Protein and Expression in S. aureus ΔXVI

Substance	Protein A expression by Western blotting in ΔXV strain [1]	Protein A expression by Western blotting with 50 µg/ml colistin [1]	Protein A expression by Western blotting in ΔXV strain complemented with arlR plus one HK [2]	Expression of protein A (arlR-dependent protein A; arlRS graSR double mutant)	Expression of protein A (arlR-dependent protein A; wild type and single arlRS mutant)
GraS histidine kinase of the graXRS two-component system of S. aureus MW2	substitution of ArlR wild type by the non-phosphorylatable ArlRD52A allele suppresses the cross-talk	activation of protein A expression was absent when the ArlR phosphate accepting aspartate was mutated	In addition to ArlS itself, GraS is able to restore protein A expression in ΔXV strain	–	–
colistin	–	–	–	but not in arlRS graSR double mutant	activation of the expression of protein A was observed
